Here are results for five molecules from patent publication US20230265151A1, “GIP/GLP1 CO-AGONIST COMPOUNDS” (priority 2020, published 2023).

Targets include hGLP-1R (Homo sapiens, UniProt P43220); human glucagon receptor (human, UniProt P47871 26-477); human GLP-1 receptor (human, UniProt P43220 24-463).
Holding throughout (test): cell-based or functional assay
The target in test [1] is human glucagon receptor (human) (UniProt P47871).
For test [2], the target named is T1, human GIP receptor (human) (UniProt P48546).
T1 sequence (looked up): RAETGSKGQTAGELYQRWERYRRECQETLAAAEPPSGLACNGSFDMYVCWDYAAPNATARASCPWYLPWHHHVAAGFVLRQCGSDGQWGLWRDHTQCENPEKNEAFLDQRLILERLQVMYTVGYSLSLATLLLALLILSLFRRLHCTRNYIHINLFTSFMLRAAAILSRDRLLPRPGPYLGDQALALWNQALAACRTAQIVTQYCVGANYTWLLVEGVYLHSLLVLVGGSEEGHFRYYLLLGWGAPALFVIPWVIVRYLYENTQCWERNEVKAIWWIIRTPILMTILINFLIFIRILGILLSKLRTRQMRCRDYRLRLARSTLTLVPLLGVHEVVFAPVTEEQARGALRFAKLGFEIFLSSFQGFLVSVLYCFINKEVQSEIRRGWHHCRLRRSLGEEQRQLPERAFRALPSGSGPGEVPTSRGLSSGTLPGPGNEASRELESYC

The target in the next test is T2, human GIP receptor (human, UniProt P48546 22-466).
T2 sequence (looked up): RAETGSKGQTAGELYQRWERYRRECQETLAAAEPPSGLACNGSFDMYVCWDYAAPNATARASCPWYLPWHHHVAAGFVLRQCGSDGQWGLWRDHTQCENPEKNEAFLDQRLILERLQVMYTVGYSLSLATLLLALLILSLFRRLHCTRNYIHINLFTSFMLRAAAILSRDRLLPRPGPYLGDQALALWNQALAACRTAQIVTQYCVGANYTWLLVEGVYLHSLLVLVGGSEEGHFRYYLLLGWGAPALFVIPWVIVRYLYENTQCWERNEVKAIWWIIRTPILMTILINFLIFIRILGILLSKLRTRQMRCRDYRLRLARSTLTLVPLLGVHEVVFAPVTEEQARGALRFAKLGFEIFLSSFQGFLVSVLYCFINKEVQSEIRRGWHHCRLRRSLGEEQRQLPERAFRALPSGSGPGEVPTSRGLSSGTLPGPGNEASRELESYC

Where no end group is shown, it is not given here. Side-chain parts run from the residue outwards. [ ]: non-standard residue; d: D form. The star is where a group is joined. Decanoyl(10-(4-HOOC-PhO)) = O=C(O)c1ccc(OCCCCCCCCCC(=O)*)cc1; αMePhe(2-F) = C[C@](N)(Cc1ccccc1F)C(=O)O; αMeY = C[C@](N)(Cc1ccc(O)cc1)C(=O)O; αMeL = CC(C)C[C@](C)(N)C(=O)O; Orn = NCCC[C@H](N)C(=O)O; AEEA = NCCOCCOCC(=O)O; Aib = CC(C)(N)C(=O)O

Sequence of human glucagon receptor (P47871 26-477): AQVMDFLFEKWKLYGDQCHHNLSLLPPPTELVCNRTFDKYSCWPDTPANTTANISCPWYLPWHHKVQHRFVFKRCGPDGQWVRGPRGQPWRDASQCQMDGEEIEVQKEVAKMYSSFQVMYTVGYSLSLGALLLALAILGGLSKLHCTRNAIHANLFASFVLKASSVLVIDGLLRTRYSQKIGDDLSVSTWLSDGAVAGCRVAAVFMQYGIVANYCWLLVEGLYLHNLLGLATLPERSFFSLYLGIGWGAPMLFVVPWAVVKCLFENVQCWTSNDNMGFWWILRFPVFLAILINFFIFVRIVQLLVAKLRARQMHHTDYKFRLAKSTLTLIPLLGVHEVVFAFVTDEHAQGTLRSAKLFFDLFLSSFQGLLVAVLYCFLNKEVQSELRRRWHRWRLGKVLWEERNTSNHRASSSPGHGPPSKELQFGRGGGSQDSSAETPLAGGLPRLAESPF

For Y[Aib]EGT[αMePhe(2-F)]TSDV[Aib]I[αMeL]LD[Orn]K([AEEA-AEEA-Decanoyl(10-(4-HOOC-PhO))])AQ[Aib]EFI[dE][αMeY]LIK([AEEA-AEEA-Decanoyl(10-(4-HOOC-PhO))])GGPSSGAPPPS-NH2 [Example 397], the cAMP EC50 in test [1] was over 9950 nM; in test [2] it was 0.0293 nM; in the test with hGLP-1R, 0.166 nM. In addition, the cAMP Emax in test [2] was determined as 94.6%; in the test with hGLP-1R, 95.8%. Further, the “cAMP EC50 (1.0% HSA)” value with human glucagon receptor is over 9950 nM; with human GLP-1 receptor it was 7.17 nM; in the test with human GIP receptor, 1.92 nM. Besides, the “cAMP Emax (1.0% HSA)” value with human GIP receptor worked out at 84.5%.

B1: Example 386 (peptide)
peptide: YXEGTXTSDVXIXLDXKAQXKFIXXLIEGGPSSGAPPPS
modifications: Y-Aib-EGT-αMeF(2F)-TSDV-Aib-I-αMeL-LD-Orn-K((2-[2-(2-Amino-ethoxy)-ethoxy]-acetyl)2-CO-(CH2)12-CO2H)AQ-Aib-K((2-[2-(2-Amino-ethoxy)-ethoxy]-acetyl)2-CO-(CH2)12-CO2H)FI-(D-Glu)-αMeY-LIEGGPSSGAPPPS-NH2
For B1, the cAMP EC50 is over 9950 nM in test [1], 0.0174 nM in test [2] and 0.194 nM with hGLP-1R. Further, the cAMP Emax in test [2] was found to be 95.7%; in the test with hGLP-1R, 98.9%. Further, the “cAMP EC50 (1.0% HSA)” value with human glucagon receptor was over 9950 nM; with human GLP-1 receptor, 17.7 nM; with human GIP receptor it was 2.08 nM. In addition, the “cAMP Emax (1.0% HSA)” value with human GIP receptor is 81.3%.

B2: Example 405 (peptide)
peptide: YXEGTXTSDXXIXLDXKAQXKFIXXLIEGGPSSGAPPPS
modifications: Y-Aib-EGT-αMeF(2F)-TSD-4Pal-Aib-I-αMeL-LD-Orn-K(PEG4-(γ-Glu)-CO-(CH2)12-CO2H)AQ-Aib-K(PEG4-(γ-Glu)-CO-(CH2)12-CO2H)FI-(D-Glu)-αMeY-LIEGGPSSGAPPPS-NH2
With B2, the cAMP EC50 is over 9950 nM in test [1], 0.0209 nM in test [2] and 1.26 nM with hGLP-1R. Moreover, the cAMP Emax was 100% in test [2] and 93.3% in the test with hGLP-1R. Besides, the “cAMP EC50 (1.0% HSA)” value is over 9950 nM with human glucagon receptor, 37.5 nM with human GLP-1 receptor and 1.23 nM in the test with human GIP receptor. For the same molecule, the “cAMP Emax (1.0% HSA)” value with human GLP-1 receptor was 78.1%.

B3: Example 393 (peptide)
peptide: YXEGTXTSDYXIXLDXKAQXKFIXXLIEGGPSSGAPPPS
modifications: Y-Aib-EGT-αMeF(2F)-TSDY-Aib-I-αMeL-LD-Orn-K((2-[2-(2-Amino-ethoxy)-ethoxy]-acetyl)2-(10-(4-carboxyphenoxy)decanoyl))AQ-Aib-K((2-[2-(2-Amino-ethoxy)-ethoxy]-acetyl)2-(10-(4-carboxyphenoxy)decanoyl))FI-(D-Glu)-αMeY-LIEGGPSSGAPPPS-NH2
On to B3, for which the cAMP EC50 in test [1] was over 9950 nM; in test [2], 0.0115 nM; in the test with hGLP-1R, 0.372 nM. The cAMP Emax stood at 94.3% in test [2] and 96.8% with hGLP-1R. The “cAMP EC50 (1.0% HSA)” value is over 9950 nM with human glucagon receptor, 9.18 nM with human GLP-1 receptor and 0.547 nM with human GIP receptor. For the same molecule, the “cAMP Emax (1.0% HSA)” value with human GIP receptor amounted to 66.7%.

B4: Example 388 (peptide)
peptide: YXEGTXTSDYXIXLDXKAQXEFIXXLIKGGPSSGAPPPS
modifications: Y-Aib-EGT-αMeF(2F)-TSDY-Aib-I-αMeL-LD-Orn-K((2-[2-(2-Amino-ethoxy)-ethoxy]-acetyl)2-CO-(CH2)12-CO2H)AQ-Aib-EFI-(D-Glu)-αMeY-LIK((2-[2-(2-Amino-ethoxy)-ethoxy]-acetyl)2-CO-(CH2)12-CO2H)GGPSSGAPPPS-NH2
On to B4, for which the cAMP EC50 in test [1] was over 9950 nM; in test [2] it was 0.0103 nM; with hGLP-1R, 0.292 nM. The cAMP Emax in test [2] came to 98.3%; with hGLP-1R, 95.4%. For the same molecule, the “cAMP EC50 (1.0% HSA)” value in the test with human glucagon receptor is over 9950 nM; in the test with human GLP-1 receptor, 6.31 nM; with human GIP receptor it was 0.463 nM.
